In the nanobody polyreactivity screen of Harvey et al. (2022):

Assay: yeast display, Sf9 membrane polyspecificity reagent, FACS + sequencing; frameworks hold sequencing errors
Outline: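 In a synthetic yeast display library (Saccharomyces cerevisiae BJ5465), nanobody expression was induced with galactose for 36–48 hours. FACS gates were set low and high (top ~1%) using anti-HA fluorescence for expression and streptavidin fluorescence for binding of the Sf9 membrane reagent. Each polyreactivity label is drawn from the gate of origin.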

Sequence | polyreactivity (PSR sort gate)
QVQLVDSGGGLVQAGGSLRLSCAASVQTIYQKAMGWYRPAPGKERELVAAITRSGGSTRYADSVKGRFTISRDNAKNTVYLEMSSLKPEDTSVFYCNARYRIGSWYEFGSWGQGTQVTVSS | high polyreactivity
QVQLVESGGGLVQAGGSLRLSCAASGSIFASYAMGWYRQAPGKERELVAAIRSSGGRTYYADSVKGRFTISRDNAKNTVYLQMNSLKPEDTAVYYCNARRPGYRPYGYDYWGQGTQVTVSS | high polyreactivity
QVQLVESGGGLVQAGGSLRLSCAASGFIFAYYALGWYRQAPGKERELVAAITWSGGRTYYADSVKGRFTISRDNAKNTVYLQMNSLKPEDTAVYYCNAVRPSVDYGYWGQGTQVTVSS | high polyreactivity
QVQLVESGVGLVQAGGSLRLSCAASGFIFSSYAMGWYRQAPGKERELVAAISRSGGRTYYADSVKGRFTISRDNAKNTVYLQMNSLKPEDTAVYYCDATWLGTDGDDYWGQGTQVTVSS | high polyreactivity
QVQLVESGGGLVQAGGSLRLSCAASGSTFKDNAMGRYIQAPGKERELVARITYRGGRTYADSVKGRFTISRDNAKNTVYFQMNSLKPEDTAVYYCAARPSLYGHNSRYDYWGQGTQVTVSS | low polyreactivity
QVQLVESGGGLVQAGGSLRLSCAASGFNFNNNGMGWYRQAPGKERELDAAISYSGGRTYYADSVKGRFTISRDNAKNTLYLQMNSLKPEETAVYYFADNSYYSRYDYWGQGTQVTVSS | low polyreactivity
QVQLVESGGGLVQAGGSLRLTCAASGSTFVINVMGWYRQAPGKERELVAAISNGGRTYADSVKGRFTISRDNAKNTVYLQMNSLKPEDTAVYYCAADVSFTQSDGRLAEYGYWGQGTQVTVSS | low polyreactivity
QVQLVESGGGIVQAGGSLRLSCAASGSTIRYYAMGWYRQAPGKERELVAAITYSGTRTYYADSVKGRFTISRDNAKTTVYLQMNSLKPEDTAVYYCNAVAKHRGVGIYTPYDYWGQGTQVTVSS | high polyreactivity
QVQLVESVGGLVQAGGSLRLSCAASGRIFWGYDMGWYRQAPGKEREFVAAISSGGGRTYYADSVKGRFTISRDNAKNTVYLQMNSLKPEDTAVYYCNADSGSYWVPRGYEYWGQGTRVTVSS | low polyreactivity
QVQLVESGGGLVQAGGSLRLSCAASGYTFSFNAMGWYRQAPGKERELVAAINRGTSTNYADSVKGRFTISRDNAKNTVYLQMNSLKPEDTAVYYCAAGFRRSAGRYDLDYWGQGTQVTVSS | high polyreactivity
QVQLVESGGGLVQAGGSLRLSCAASGRTFWGYAMGWYRQAPGKERELVATISSTGSTNYAESVKGRFTISRDNAKNTVYFQMNSLKPEATAVYYCNAKRHVYRGWYQRYDYWGQGTQVTVSS | high polyreactivity
QVQLVESGGGLVQAGGSLRLSCAASGSIFDVNSMGWYRQAPGKERELVAAISDSGGSTYYADSVKGRFTISRDNAKNTVYLQMNSLKPEDTAVYYCNADWSWYNYYDFDYLGQGTQVTVSS | low polyreactivity
QVQLVESGGGLVQAGASLRLSCDASGLTFGYYAMGWYRQAPGKERELVAAINRSGNTNYADSVKGRFTISRDNAKNTVYLQMNSLKPEDTAVYYCAKRIWSILSPYKSSYGYDYWGQGTQVTVSS | low polyreactivity
QVQLVESGGGLVQAGGSLRLSCAASGSTFTTYAMGWYRQAPGKERELVAAISKSGGSTYYADSVKGRFTISRDNAKNTVYLQMNSLKPEDTAVYYCATSFRSTARKYGYWGQGTQVTVSS | high polyreactivity
QVQLVESGGGLVQAGGSLRLSCAASGRTFAYNAMGWYRPAPGKERELVAAITGSGGRTYYADSVKGRFTISRDNAKNTVYLQMNSLKAEDTAVYYCAVGLPSRYDYWGQGTQVTVSS | low polyreactivity
QVHLVESGGGLVQAGGSLRLSCAASGFIFYSNAMGWYRQAPGKERELVAAISSGGGSTRYADSVKGRFTISRDNAKNTVYLQMNSLKPQDTAVYYCAAREGYTKFRSTRYYYWGQGTQVTVSS | high polyreactivity
QVQLVESGGGLVQAGGSLRLSCAASGFIFDYYAMGWYRQAPVKERELVAAISWSGGSTYYADSVKGRFTISRDNAKNTVYLQMNSLKPEDTAVYYCNSYYQGYWGDFDYWGQGTQVTVSS | high polyreactivity
QVQLVESGGGLVQAGGSLRLSCAASGSIFSYYVMGWYRQAPGKERELVAAITRSGGSTYYADSVKGRFTISRDNAKNTVYLQMNSLKPEDTAVYDCNALWRVRGDYWGQGTQVTVSS | high polyreactivity
QVQLVESGGGLVQAGGSLRLSCAASGSTFDVYAMGWYIQAPGKERELVASIRWSGGSTNYADSVKGRFTISRDNAKNTVYLQMNSLKPEDTAVYYCNADVGTGFRPGQYDYWGQGTQVTLSS | low polyreactivity
QVQLVESGGGLVQAGGSLRLTCAASGSIFDRNAMGWYRQAPGTERELVAAITYRSGGTYYADSVKGRFTISRDNAKNTVYLQMNSLKPEDTSVYYCNKGYRRYKGYDYWGQGTQVTVSS | high polyreactivity
QVQLVESRGGLVQAGGSLRLSCAASGSTFNYYTMGWNRQAPGKERELVATITSGGTTYYADSVKGRFTISRDNAKNTVYLQMNSLKPEDTAVYYCAVQLRRHVDMDYWGQGTQVTVSS | high polyreactivity
QVQLVESGGGLVQEGGSLRLRCAASGRIFYNYAMGCYRQAPGKERELVAAITGRGGRTYYADSVKGRFTISRDNAKNTVYLQINSLKPEDTAVYYCSVRAGTAGYPKYDYWGPGTQVTVSS | high polyreactivity

Sequence | polyreactivity (PSR sort gate)
QVKLVESGGGLVQAGGSLRLSCADSGFTFSSNGMCWYRPAPGKETELVAAITRRGGSTYYADSVKGRFTISRDNAKNTVYLQMNSLKPEDTAVYYCAKQLWDPKYDYWGQGTQVTVSS | high polyreactivity
QVQLEESGGGLVQAGGSLRLSCAASGRTFVPYAMGWYRQAPGKERELVAAINSGGSTYYADSVKGRFTISRDNAKNTVYLQMNSLKPEDTAVYYCAAEYWNSRFSYAYGYWGQGTQVTVSS | high polyreactivity
QVQLVESGGGLVQAGGSLRLSCAASGSIFRYYVMGWYRQAPGKERELVAAISTGDRTNYADSVKGRFTISRDNAKNTVYLQMNILKPEDTAVYYCNADYVVGWARLEFNYWGQGTQVTVSS | low polyreactivity
QVQLVESGGGLVQAGGSLRLSCAASGGTFRPNAMGLYRQAPGKERELVAAISYTGSTYYADSVKGRFTISRDNAKYTVYLQMNSMKPEDTAVYYCAAYGYHRYYLYDYWGQGTQVTVSS | low polyreactivity
QVQLVESGGGLVQAGGSLRLSCAASGFTFDVNAMGWYRQAPGKERELVASITGSGSRTDYADSVKGRFTISRDNAKNTVYLQMNSLKPEDTAVYYCATDQRLGYQDDDYWGQGTQVTVSS | low polyreactivity
QVQLVESGGGLVQAGGSLRLSCAASGRIFWINALGWYRQAPGKERELVAAISWRGDSTYYADSVKGRFTISRDNAKNTVYLQMNSLKPEDTAVYYCAATWYSWGSEFDYWGQGTQVTVSS | high polyreactivity
QVQLVESGGGLVQAGGSLRLTCAASGFTFFTYTMGWYRQPPGKERELVAAISRDGARTNYADSVKGRFTISRDNAKNTVYLQMNSLKPEDTAVYYCAAPTSHLYTEKYDYWGQGTQVTVSS | high polyreactivity
QVQLVESGGGLVQAGGSLRLSCAASGRIFPSYAMGWYRQAPGKERELVAAISSSGGRTYYADSVKGRFTISRDNAKNTVYLQKNSLKPEDTAVYYCNARSPAYFYQWLYSFRYDYWGQGTQVTVSS | high polyreactivity
QVQLVESAGGLVQAGGSLRLSCAASRSIYGYYAMGWYRQEPGKERELVAAIRRSGGSTYYADSVKGRFTISRDNAKNTVYLHMNSLKPEDTAVYYCAARVSPYRGFYYWGLGTQVTVSS | high polyreactivity
QVQLVESGGGVVQAGGSLRLSCAASGRIFRYTMGWYRQAPGKETELVADITRHGGSTYYADSVKGRFTISRDNAKNTVYLQMNSLKPEDTAVYYCAADHLSYRRRYEYWGQGTQVTVSS | low polyreactivity
QVQLVESGGGLVQAGGSLRLSCAASGRTFYQYDMGWYRQAPGKERELVAAIDWSGGSTYYADSVKGRFTISRDNAKNTVYLQMNSLKPEDTAVYYCNKDSHISTAYDYWGQGTQVTVSS | low polyreactivity
QVQLVESGGGLVQAGGSLRLSCAASGNIFRYYAMGWYRPAPGKERELVAAISSRGGSTYYADSVKGRFTISRDNAKNTVYLQMTSLKPADTAVYYCAAGGYDVYHDPYYYWGQGTQVTVSS | low polyreactivity
QVQLVESGGGLVQAGGSLRLSCAASGSTFPYYAMGWYRQAPGKERELVAVITSSGSRTYYADSVKGRFTISRDNAKNTVYLPMNSLKPEDTAVYYCARDTRYYLPYRSQYDYWGQGTQVTVSS | high polyreactivity
QVQLVESGGGLVQAGGILRLSCAASGSNFAPYAMGWYRQSPGKERELVATISASGGTTYYADSVKGRFTISRDTAKNTVYLQMNSLKPEDTAVYYCNADSNWYYLGNYYGLNDYWGQGTQVTVSS | low polyreactivity
QVQLVESGGGLVQAGGSLRLSCAASGRTFGGYTMGWYRQATGKEMELVAAITGSGSNTYYADSVKGRFTISRDNAKNTVYLQMNSLKPEDTAVYYCAAPYSYRTWYPYGYWGQGTQVTVSS | high polyreactivity
QVQLVESGGGLVQAGGSLRLSCAASGIIFTYYAMGWYRQAPGKEREIVAAISWSGGNTYYADSVKGRFTISRDHAKNTVYLQMNSLKPEDTAVYYCARVQYWFYKPMYYWGQGTQVTVSS | high polyreactivity
QVQLVESGGGLVQAGGSLRLSCAASGSTFLTNVMGWYRQAPGKEREFVAAITANGGRTYYADSVKGRFTISRDNAKKTVYLKMNSQKPEDTAVYYAVETAWSYNSIYWFDYWGQGTQVTVSS | high polyreactivity
QVQLVESGGGLVQAGGSLRLSCAAYGSILYVYAMGWYRQAPGKERELVAVITAGGSTNYADSVKGRFTISRDNAKNTVYLQMNSLKPEHSAVYYCAADPYSVYGGDYWGQGTQVTVSS | low polyreactivity
QVQLVESGGGLVQAGGSLRLSCAASGSIFTNYAMGWYRQAPGKERELVAAISQSGDTTYNADSVKGRFTISRDNAKNTVYLQMNSLKPEDTAVFFCAAQYYRWFYYWGQGTQVTVSS | high polyreactivity
QVQLVESGGGLVQAGGSLRLSCASSGYTFTIYAMGWYRQAPGKERELVAAITGRGGRTNYADSVKGRFTISRDNAKNTVYLQIYRLIPVDTAVYYCNAVTKVVYHGPYGYDYWGQGTQVTVSS | high polyreactivity
QVQLQESGGGLVQVGGSQSLICAASGNIFYNYAMGWYRHAQGKEREFDATINHGTSINYADSVKGRFTISRDNAKNTVYLQMNSLKPEDTAVYYCAADLSRTDNLFYWGQGTQVTVSS | low polyreactivity
